US20190185531A1 (published 2019)

T1: human Bfl-1 (c-myc-tagged) (human, UniProt Q16548 1-151)
T1 chain: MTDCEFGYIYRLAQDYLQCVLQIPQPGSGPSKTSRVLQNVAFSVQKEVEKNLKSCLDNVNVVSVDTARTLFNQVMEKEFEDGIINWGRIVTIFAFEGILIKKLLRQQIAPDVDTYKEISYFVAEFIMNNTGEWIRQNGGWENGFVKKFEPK

T2: Bcl-w (c-myc-tagged) (human, UniProt Q92843 1-164)
T2 chain: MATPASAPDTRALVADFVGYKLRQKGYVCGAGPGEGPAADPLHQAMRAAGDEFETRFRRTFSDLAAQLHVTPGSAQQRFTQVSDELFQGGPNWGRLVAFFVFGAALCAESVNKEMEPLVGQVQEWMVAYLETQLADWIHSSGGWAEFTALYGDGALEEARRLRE

T3: human Mcl-1 (c-myc-tagged) (human, UniProt Q07820 172-327)
T3 chain: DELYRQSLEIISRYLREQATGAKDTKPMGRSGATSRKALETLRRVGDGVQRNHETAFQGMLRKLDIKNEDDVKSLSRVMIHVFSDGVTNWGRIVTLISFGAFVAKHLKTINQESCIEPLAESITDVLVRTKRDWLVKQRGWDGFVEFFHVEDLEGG


Experiments:
[1] = molecular target: T1, human Bfl-1 (c-myc-tagged); assay: fluorescence anisotropy competition
[2] = molecular target: T1, human Bfl-1 (c-myc-tagged); assay: anisotropy
[3] = molecular target: Bcl-xL (c-myc-tagged) (human, UniProt Q07817 1-209); assay: fluorescence anisotropy competition
[4] = molecular target: Bcl-2 (c-myc-tagged) (human, UniProt P10415 1-217); assay: fluorescence anisotropy competition
[5] = molecular target: T2, Bcl-w (c-myc-tagged); assay: fluorescence anisotropy competition
[6] = molecular target: T3, human Mcl-1 (c-myc-tagged); assay: fluorescence anisotropy competition
[7] = molecular target: T1, human Bfl-1 (c-myc-tagged); assay: fluorescence anisotropy competition

Bcl-xL (c-myc-tagged), sequence (Q07817 1-209): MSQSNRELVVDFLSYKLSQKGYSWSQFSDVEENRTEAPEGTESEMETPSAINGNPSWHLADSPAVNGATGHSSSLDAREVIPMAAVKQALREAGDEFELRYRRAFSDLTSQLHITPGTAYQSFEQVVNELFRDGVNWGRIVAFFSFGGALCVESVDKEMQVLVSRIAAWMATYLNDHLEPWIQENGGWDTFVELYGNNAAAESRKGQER
Bcl-2 (c-myc-tagged), sequence (P10415 1-217): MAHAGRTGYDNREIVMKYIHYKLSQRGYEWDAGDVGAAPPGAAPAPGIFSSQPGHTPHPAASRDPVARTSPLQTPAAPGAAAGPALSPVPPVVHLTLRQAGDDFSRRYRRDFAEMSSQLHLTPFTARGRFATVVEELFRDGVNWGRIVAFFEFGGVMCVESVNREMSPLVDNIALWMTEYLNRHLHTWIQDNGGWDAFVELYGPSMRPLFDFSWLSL

| Ki [1] | Ki [2] | Ki [3] | Ki [4] | Ki [5] | Ki [6] | Ki [7] | Binder |
| --- | --- | --- | --- | --- | --- | --- | --- |
| 2.1 nM | – | – | – | – | – | – | Ac-QWVREIAAQLRRMADDLNAQYER-NH2 [PUMA/FS2 chimeric peptide: PUMA with larger residues at positions A2 and E2] |
| – | 16.4 nM | 2720 nM | 6940 nM | 8880 nM | > 5000 nM | – | Ac-QWVREIAAGLRLAADNVNAQLER-NH2 [FS1] |
| 21 nM | – | 7340 nM | 2450 nM | 7210 nM | 2580 nM | 24.8 nM | Ac-QWVREIAAGLRRAADDVNAQVER-NH2 [FS2] |
| 600 nM | – | – | – | – | – | – | Ac-QWAREIGAGLRRAADDVNAQVER-NH2 [PUMA/FS2 chimeric peptide: PUMA with smaller residues at positions G2, D3, A4 and E4] |
| – | – | 105 nM | 2360 nM | 828 nM | 711 nM | 2.1 nM | Ac-QWIREIAAGLRRFADILNAQVER-NH2 [FS3] |
| 4.8 nM | – | – | – | 6 nM | 2.7 nM | 5.1 nM | Ac-QWAREIGAQLRRMADDLNAQYER-NH2 [Puma BH3 peptide (23 residues)] |
